In patent publication US20160046706A1 (MEDICAL AND BIOLOGICAL LABORATORIES, published 2016):

Key:
[1] = target: T1, EGF (R&D Systems 236-EG-200) (UniProt P01133 971-1023); test: ELISA, factor on the plate at 0.5 µg/mL (FIG. 8)
T1 construct: Bought protein
Procedure: (§1) After the solution was removed, 1% BSA (manufactured by Nacalai Tesque, Inc.: 01863-35)—5% Sucrose (manufactured by WAKO PURE CHEMICAL […], LTD.)—PBS was added in an amount of 150 μL/well, and left to stand at room temperature for 2 hours to block the remaining active groups. After the resultant was left to stand, the solution was removed, and the hybridoma culture supernatant was dispensed as a primary antibody in an amount of 50 μL/well and left to stand for 1 hour. After the plate was washed with 0.05% Tween 20-PBS, an HRP-labeled anti-mouse IgG antibody (manufactured by MBL Co., Ltd.: 330) having been diluted 10000 times was added as a secondary antibody in an amount of 50 μL/well and left to stand at room temperature for 1 hour. After the plate was washed with 0.05% Tween 20-PBS, a color developing solution (5 mM sodium citrate, 0.8 mM 3.3′.5.5′-tetramethylbenzidine-2HCl, 10% N,N-dimethylformamide, 0.625% polyethylene glycol 4000, 5 mM citric acid monohydrate, 5 mM H2O2) was added thereto in an amount of 50 μL/well and left to stand at room temperature for 20 minutes to develop a color. The color development was terminated by adding 1 M phosphoric acid in an amount of 50 μL/well. Then, the absorbance at 450 nm was measured using a plate reader (manufactured by Thermo Fisher Scientific Inc.).
(§2) As described above, any homology with the NRG1 protein is low in the EGF domain. Nonetheless, 8a4, 10bM3, and 10b2M3 capable of recognizing the vicinity of the EGF domain were analyzed for the reactivity with the other factors of the EGF family by the same ELISA as above. To be more specific, each of EGF (manufactured by R&D Systems, Inc.: 236-EG-200), HB-EGF (manufactured by R&D Systems, Inc.: 259-HE-050/CF), TGF-alpha (manufactured by R&D Systems, Inc.: 239-A-100), AREG (manufactured by R&D Systems, Inc.: 262-AR-100/CF), NRG1-α (manufactured by R&D Systems, Inc.: 296-HR-050/CF), or NRG1-b (manufactured by R&D Systems, Inc.: 296-HB-050/CF) was dispensed in a 96-well ELISA plate in an amount of 0.5 μg/mL, that is, 50 μL/well, and immobilized thereto, for detection of the reaction with each antibody in amounts of 10 μg/mL and 1 μg/mL.

[2] = target: T2, HB-EGF (heparin-binding EGF-like growth factor; R&D Systems 259-HE-050/CF) (UniProt Q99075 63-148); test: ELISA, factor on the plate at 0.5 µg/mL (FIG. 8)
T2 construct: Bought protein
Procedure: as §1, §2

[3] = target: T3, TGF-alpha (transforming growth factor α; R&D Systems 239-A-100) (UniProt P01135 40-89); test: ELISA, factor on the plate at 0.5 µg/mL (FIG. 8)
T3 construct: Bought protein; also called TGFα; TGF-α
Procedure: as §1, §2

[4] = target: T4, AREG (amphiregulin; R&D Systems 262-AR-100/CF) (UniProt P15514 101-198); test: ELISA, factor on the plate at 0.5 µg/mL (FIG. 8)
T4 construct: Bought protein
T4 sequence (looked up): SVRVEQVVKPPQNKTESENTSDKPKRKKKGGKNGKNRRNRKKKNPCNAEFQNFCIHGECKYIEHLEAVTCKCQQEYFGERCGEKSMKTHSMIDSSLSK
Procedure: as §1, §2

[5] = target: T5, human NRG1-α protein (full length, HA tag at the N-terminus, on NRG1-a/st293T cells) (human, UniProt Q02297 20-640); test: ELISA on partial-length proteins and flow cytometry on NRG1-a/st293T cells (FIGS. 5 to 7)
T5 construct: also called NRG1 isoform 2; HA-NRG1-a/st293T; not shown: HA tag added to the N-terminus
T5 sequence: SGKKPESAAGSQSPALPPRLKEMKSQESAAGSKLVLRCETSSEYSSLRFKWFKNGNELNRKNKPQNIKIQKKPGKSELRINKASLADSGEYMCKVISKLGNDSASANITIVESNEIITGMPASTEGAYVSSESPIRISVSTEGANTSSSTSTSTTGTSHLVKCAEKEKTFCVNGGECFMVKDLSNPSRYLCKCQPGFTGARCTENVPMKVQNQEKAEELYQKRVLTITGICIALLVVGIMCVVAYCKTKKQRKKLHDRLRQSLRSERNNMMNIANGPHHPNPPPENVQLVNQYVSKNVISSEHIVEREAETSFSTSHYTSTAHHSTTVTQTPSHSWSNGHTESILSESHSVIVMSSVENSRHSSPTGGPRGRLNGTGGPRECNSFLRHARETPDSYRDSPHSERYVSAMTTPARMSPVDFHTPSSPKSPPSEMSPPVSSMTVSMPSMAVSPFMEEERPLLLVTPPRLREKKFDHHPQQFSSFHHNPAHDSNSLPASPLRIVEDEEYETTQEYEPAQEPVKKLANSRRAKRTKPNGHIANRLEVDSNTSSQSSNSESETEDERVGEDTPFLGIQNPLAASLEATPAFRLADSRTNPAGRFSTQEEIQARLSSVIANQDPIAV

[6] = target: T6, human NRG1-β1 protein (full length, HA tag at the N-terminus, on NRG1-b/st293T cells) (human, UniProt Q02297 20-640); test: flow cytometry on NRG1-b/st293T cells
T6 construct: also called NRG1 isoform 1; HA-NRG1-b/st293T; not shown: HA tag added to the N-terminus
T6 sequence: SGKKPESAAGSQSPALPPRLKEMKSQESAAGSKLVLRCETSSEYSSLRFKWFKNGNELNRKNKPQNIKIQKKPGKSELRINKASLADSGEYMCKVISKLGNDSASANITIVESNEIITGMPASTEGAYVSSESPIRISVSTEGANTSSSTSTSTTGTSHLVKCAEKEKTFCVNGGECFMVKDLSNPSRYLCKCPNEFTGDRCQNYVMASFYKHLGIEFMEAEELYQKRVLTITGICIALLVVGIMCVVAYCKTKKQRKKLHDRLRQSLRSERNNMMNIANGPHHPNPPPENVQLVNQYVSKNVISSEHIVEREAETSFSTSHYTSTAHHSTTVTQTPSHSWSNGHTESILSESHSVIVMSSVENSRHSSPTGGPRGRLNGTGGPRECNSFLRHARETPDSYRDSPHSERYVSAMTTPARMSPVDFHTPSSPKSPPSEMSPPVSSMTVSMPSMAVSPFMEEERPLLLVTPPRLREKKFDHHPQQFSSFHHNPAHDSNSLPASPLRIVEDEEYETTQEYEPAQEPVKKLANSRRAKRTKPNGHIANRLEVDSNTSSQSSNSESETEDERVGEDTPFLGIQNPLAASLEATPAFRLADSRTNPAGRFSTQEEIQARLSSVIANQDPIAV

[7] = target: T7, agPa (synthetic peptide containing the cleavage region of NRG1-a, bound to KLH); positions 221 to 244 of the … (human, bound to KLH); test: ELISA, partial-length NRG1 protein on the plate (FIG. 4)
T7 peptide: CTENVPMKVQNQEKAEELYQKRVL
Procedure: Hybridomas producing anti-NRG1 antibodies were selected by the enzyme-linked immunosorbent assay (ELISA). The assay used the recombinant human NRG1 proteins as immunogens, which had been dispensed in a 96-well ELISA plate (manufactured by nunc A/S) in an amount of 0.5 μg/mL, that is, 50 μL/well, and left to stand at room temperature for 2 hours or 4° C. overnight for adsorption. After the solution was removed, 1% BSA (manufactured by Nacalai Tesque, Inc.: 01863-35)—5% Sucrose (manufactured by WAKO PURE CHEMICAL […], LTD.)—PBS was added in an amount of 150 μL/well, and left to stand at room temperature for 2 hours to block the remaining active groups. After the resultant was left to stand, the solution was removed, and the hybridoma culture supernatant was dispensed as a primary antibody in an amount of 50 μL/well and left to stand for 1 hour. […] Then, the absorbance at 450 nm was measured using a plate reader (manufactured by Thermo Fisher Scientific Inc.).
The sequences recognized by 8a2, 8a4, 10bM3, and 10b2M3 were analyzed by evaluating the reactivity with the recombinant NRG1 proteins. To be more specific, the analysis was performed using multiple partial-length NRG1 proteins, and the reactivity of each antibody with these was detected by the same enzyme-linked immunosorbent assay (ELISA) as above. […] The vertical axis represents the absorbance.

T3 sequence (P01135 40-89 limits assumed): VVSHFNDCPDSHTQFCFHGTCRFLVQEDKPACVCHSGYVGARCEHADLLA
T2 sequence (Q99075 63-148 limits assumed): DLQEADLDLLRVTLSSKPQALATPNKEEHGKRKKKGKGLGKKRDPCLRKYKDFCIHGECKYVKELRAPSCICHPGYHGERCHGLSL
T1 sequence (P01133 971-1023 limits assumed): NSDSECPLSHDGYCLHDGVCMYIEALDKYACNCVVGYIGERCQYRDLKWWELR

B1: 10b2M3 (antibody, mouse IgG1, V domains shown)
VH: QVQLQQSGPELVKPGASVKISCKASGYAFSSSWMNWVKQRPGKGLEWIGRIYPGDGDIYYNGKFKGKATLTADKSSSTAYMQLNSLTSEDSAVYFCARTFNYPFFAYWGQGTLVTVSS
VL: DILMTQSPSSLTVSTGEKVTMSCKSSQSLLASANQNNYLAWHQQKPGRSPKMLIIWASTRVSGVPDRFIGSGSGTDFTLTINSVQAEDLAVYYCQQSYSAPTTFGAGTKL
notes: Mouse monoclonal antibody; Variable genes were amplified with mouse IgG1 CH1 and kappa constant region primers; The printed VL ends at ...GTKL; also called 10b2M3 antibody
B1: no binding (tested: 10 µg/mL and 1 µg/mL) [1]; no binding (tested: 10 µg/mL and 1 µg/mL) [2]; no binding (tested: 10 µg/mL and 1 µg/mL) [3]. B1: no binding (tested: 10 µg/mL and 1 µg/mL) [4]; no binding [5].

B2: 8a4 (antibody, mouse IgG1, V domains shown)
VH: EVQLQQSGADLVRPGASVKLSCTASGFNIKDDYIHWVKQRPEQGLEWIGWIDPENGDTEYASQFQGKATITADTSSNTAYLQLRSLTSEDTAVYYCTTSDHRAWFAFWGLGTLVTVSS
VL: DVLMTQTPLSLPVSLGDQASISCRSSQTIVHRNGNTYLEWYLQKPGQSPKLLIYRVSNRFSGVPDRFSGSGSGTDFTLKISRVEAEDLGVYYCFQGSHVPLTFGAGTKL
notes: Mouse monoclonal antibody; Variable genes were amplified with mouse IgG1 CH1 and kappa constant region primers; The printed VL ends at ...GTKL; also called 8a4 antibody
B2: no binding (tested: 10 µg/mL and 1 µg/mL) [1]; no binding (tested: 10 µg/mL and 1 µg/mL) [2]; no binding (tested: 10 µg/mL and 1 µg/mL) [3]. B2: no binding (tested: 10 µg/mL and 1 µg/mL) [4]; no binding (tested: 5 µg/mL) [6]; binds [7].

B3: 10bM3 (antibody, mouse IgG1, V domains shown)
VH: EVQLVESGGGLVKPGGSRKLSCAASGFTFSDYGIHWVRQAPEKGLEWLAYISSGSSTIYYADTVKGRFTISRDNAKNTLFLQMTSLRSEDTAMYYCARGSNYVGYYAMDYWGQGTSVTVSS
VL: DIVMTQSPSSLAVTAGEKVTMRCKSSQSLLWSVNQKNYLSWYQQKEGQSPKLLIYGASIRESWVPDRFTGSGSGTDFTLTISNVHAEDLAVYYCQHNHGRFLPLTFGGGTKL
notes: Mouse monoclonal antibody; Variable genes were amplified with mouse IgG1 CH1 and kappa constant region primers; The printed VL ends at ...GTKL
B3: no binding (tested: 10 µg/mL and 1 µg/mL) [1]; no binding (tested: 10 µg/mL and 1 µg/mL) [2]; no binding (tested: 10 µg/mL and 1 µg/mL) [3]. B3: no binding (tested: 10 µg/mL and 1 µg/mL) [4]; no binding [5].
